This is an account of results in patent US20160040149A1, “Compositions Having Dicamba Decarboxylase Activity and Methods of Use” (priority 2013, published 2016).

The labels stand for the following.
B1: 46 (protein, listed as Rhodococcus opacus)
chain: MARIITLEEHYLDPAIAAASAPLARELSPDFAAAYDPASGLSYTPSAQVLQDLGQRRIADMDTHGISMQVLSCLTTQQVPADVAPDLVRAANDTAAAAVRAHPDRFAAFAALPTTAPDAAATELARCIDDLGFVGTMINGRTDGEFLDAPRFDPILATAAARNVPIYLHPAVPPRATSDSNYAGLAPLVTARLQTSAWGWHQETAVHFLHLVLSGVLDRYPNLQFILGHWGEMIPFYLDRLDEALPQAVTNLDRTISDYVRENVYITPSGMFNQAQLQYCVETLGVDRILYSVDYPFIGNDGAVSFLDEANLPDEAKHQIAHQNTEKLLGL
B2: 43 (protein, listed as Rhizobium leguminosarum)
chain: MAQGKIALEEHFAIPETLQDSAGFVPGDYWTELSARLLDIQDKRLRLMDTHGIEKMILSLNAPAVQAIPDKAKAVEISRRANDFLAEQCVKNPNRFLGFAALPLQDPDAATQELQRCVTTMGFVGALVNGFSQEGDGTTPLYYDLPQYRPFWAEVEKLDVPFYLHPRNPLPQDSRIYAGHSWLMGPTWAFAQETAVHALRLMGSGLFDEHPALRIIVGHMGEGLPYMMWRIDNRNAWVKVEKSYPAKRPIADYFNENFYITTSGNFRTQSLIDAMLEIGADRILFSADWPFENVDHAANWFDSATISEADRLKIGRTNAVSLFKLDR
B3: 53 (protein, listed as Granulicella tundricola)
chain: MARTITLEEHFVTDSFLRATGAYDKPAPPWLAQLQPKLLDLGDGRIAAMDEAGIDLQVLSLAALGFDALDAATATPLVHDINDELAAAVRANPTRLAAFASLALKDPQSAARELERAIQKLGFRGVLLDGTTDGLFLDDPRFTPVFEAAVALNVPIYLHPAPPPESVFDTYFTGLPEGVGQMLSIAGWGWHAETALHTLRLITNGVFDRYPTLQLIIGHMGEMLPMALARTSKALSHAARLRQPVAAYFQSNIHLTTSGYFTQPPLRCALDVVGIDRLMFSIDYPFSANTLGRDYLTELEQTLTPEDLAKLIHRNAESLLNLS
B4: 50 (protein, listed as Streptomyces sp.)
chain: MARIVTLEEHWTDPAVTAAGMPNLLDHVPGYAAAFDPDTGMPYPRHPELLEDLGAARIADMDRHGITTQVLSLVNTFLPADVAPRLTAAANDAMAAAVEAFPGRFAAFATLPTAVPGAAADELRRCVGELGFVGTMIMGRTDGEFLDQPRFDPILRAASDLSVPVYLHPAPPPVAVSEASYAGGLSPAVSAAFRLAAWGWHQETAVHLLHLVLAGVLDRYPGLQFVLGHWGEFIPFYLDRLDESMPRRMTGLDRTFREYFRDNVFITPSGMFSQAQLRYCADTVGTDRIIHSVDFPMLGNEGAVSFLTDSHLSREDQEKIAHGNADALLGLG
B5: 47 (protein, listed as Serratia odorifera)
chain: MAKIICLEEHTLDKALVMASMPAALAQAPFLSDWGKTITDGNLPDRSRPQIEKNDLINVKGADIGRGRLDDMDEAGITMQVLSVGGFPHLISAAEGVDLNRAANDRLANAVNAHPDRFAAFATLPWAQPDAAEKELERAVKELGFKGALLNGRPSIHFLDHPDYDGLLARFNALGVPLYLHPGLPVRSVQQAYYSGFSDEVTARLSMFGWGWHHEAGIHLLRLILSGAFDKYPNLQVISGHWGEMLPFWLQRLDDSLPQAATGLRRTITQTFREQVYVTPSGMLTLPHFQFIYALLGAERILFSVDYPYQTLDGVKAFIQSLPVPEEAKEAIAFRNAERLFGLTS
B6: 40 (protein, listed as Rhodococcus jostii)
chain: MAQGKIALEEHFAIPETLNDSAGFVPGTYWDELQARLLDIQDVRLKLMDEHNIETMILSLNAPAVQAIPERERAIDIARRANDVLAEECAKRPDRFRGFAALPLQDPDAAAEELRRCVTELGFVGALVNGFSQSATVDGGSTPLYYDLPRYRPFWAEVERLDVPFYLHPRNPLNQDARIYEGHPWLLGPTWAFAQETAVHALRLMASGLFDEHPGLRIVLGHMGEGIPAMLWRIDHRNAWVDVPPAYPAKRRMVDYFTENFFVTTSGNFRTQTLIDLLLELGSERVMFSTDWPFENINHAAEWFDAASISEADRLKIGRTNAATLFKLDR
B7: 37 (protein, listed as Burkholderia gladioli)
chain: MATFSNVKKIALEEHFAIAETIEDSAGFVPPDDWVELRGRLLDIQERRLAEMDRAGIELMVLSLNAPAVQAIRDPRQAVELARRANDYLAEQVARRPDRFRAFAALPMQAPEQAIREAERCVRELGFVGALVNGFSEAEDGAELYYDLPRYRPFWAALEALEVPFYLHPRNPLAGRAPIYDGHSWLMGPTWAFGQETAVHALRLMGSGLFDAHPRLQIILGHMGEGLPYSMWRVDNRNAWVSAKPNYPAEKPIAEYFRNNFWLTTSGNFRTQTLIDAMLEIGSDRILFSADWPFENMDHAADWFDHASISENDRIKIGRGNAERLLKLGR
B8: 39 (protein, listed as Agrobacterium fabrum)
chain: MAQGKVALEEHFAIPETLQDSAGFVPGDCWTELQHRLLDIQDTRLKLMDAHGIETMILSLNAPAVQAIPDKTKAIEIARRANDALAEECAKRPDRFLAFAALPLQDPDAATQELRRCVNDLGFVGALVNGFSQEGDGQTPLYYDLPQYRPFWGEVEKLDVPFYLHPRNPLPQDSRIYDGHPWLLGPTWAFAQETAVHALRLMASGLFDEHPRLDIILGHMGEGLPYMMWRIDHRNAWVKLPPRYPAKRRFVDYFNENFHITTSGNFRTQTLIDAILEIGADRILFSTDWPFENIDHASDWFHATSIAEADRVKIGRTNARRLFKLDGR
B9: 51 (protein, listed as Mycobacterium gilvum)
chain: MARVIAIEEHYAHPGLQPAEALANLRKHPQLARIQDKLEDLGAGRLADMDAAGIDMQVLSHTVPGAEALPAAQAVDVVRQTNDDLAEVIAAHPDRFAGFAALPMRDPQAAATELQRAVGTLGFCGAMINGLIEGRFLDHPDFTPLLSTAADLGVPLYLHPSFPPPQVAQIYFGGLPPVLADLLATAGWGWHAETALHVLRLISTGVFDRLPELRVIVGHMGEMIPFALARIDTVLSPMTELRQPVAQYFQTNVWFTTSGYTTFPPLQCALSTVGIDRLIFSVDYPYTDNASARALLDTAPISPVDREKLAHATVEALLRV
B10: 48 (protein, listed as Amycolatopsis mediterranei)
chain: MASMKLYGLEEHFVTADVIEAWRRRDPGLAEPMMKWAVASDITPALLDVDGGRIAAMDDAGIDTTVLSLTTPGLQNLDAAEAVALQAPTNDLIAAAVRRHPGRFQGFATLATSAPAAAADELRRAVTELGLNGALVNANSRGRALDAPGFWDIYEAAEDLRAPVYLHPGVPVPAVTEAYYRGFGEPVNSMLATGAFGWHYDAGLTILRMIVAGVFDRFPGLQVILGHWGEVVLFYLDRVAAMDKLTALRRPIAEYFRSNIFITPGGISSHKYLRWSLETVGVERIMYASDYPFNTERAGSARRFLDTAPVDEAGRERIAYRNWEELIAGIRR
B11: 49 (protein, listed as Streptomyces sp.)
chain: MAKIIALEEHFSDPAVAKAGAARARALSPGFAASYSPASGLPYSPSPEVLENLAEKRLADMDAGGITMQVLSGLGAQTVPADVAPALVAGSNDKAAAAVRAHPDRFAAFAALPTATPEAAVAELDRSVNELGFVGTLIMGRTEGEFLDAPRFEPILARAAALKVPVFLHPGVPPREITDSNYAAGLPTGIGTRLQTAAWGWHQETAVHFLHLVHSGVLDRYPDLQFILGHWGEMIPFYLDRVDEALPQRATGLDRSFHEYFRENVYLAPSGMWSQAQLRFCLETVPLERIVFAVDYPFIGNEGAVPFLEKAELPQADKRKIAHENAERLLGL
B12: 52 (protein, listed as Streptomyces sp.)
chain: MAKIIALEEHFSDPAVAKAGAARAQALSPGFAASYSPASGLPYSPSPEVLENLAEKRLADMDAGGITMQVLSGLSAQTVPADVAPALVAGSNDKAAAAVRAHPDRFAAFAALPTAAPEAAVAELDRSVNELGFVGTLIMGRTEGEFLDAPRFEPILARAAALKVPVFLHPGVPPREITDSNYAAGLPTGIGTRLQTAAWGWHQETAVHFLHLVHSGVLDRYPDLQFILGHWGETIPFYLDRVDEALPQRATGLDRSFHEYFRENVYLAPSGMWSQAQLRFCLETFPLERIVFAVDYPFIGNEGAVPFLEKAELPEADKRKIAHENAERLLGL
B13: 45 (protein)
chain: MANDDLAEVIAAHPDRFAGFAALPMRDPQAAAVELQRAVGTHGFCGAMINGLIEGRFLDDPAFAPLLSTAADLGVPLYLHPSFPPPQVAEIYFGGLAPVLGDLLATAGWGWHAETALHVLRLVATGVFDRLPELWVIVGHMGEMIPFALARIDTVLSPVAQLRQPVAQYFQTNVWFTTSGYTTFPPLQCALSTVGIDRLIFSVDYPYTDNTSARALLDTAPISPVDREKLAHGTVEALLRV
modifications: Mycobacterium sp
B14: 38 (protein, listed as Variovorax paradoxus)
chain: MAQGKIGLEEHFAIPQTLQDSAGFVPGVYWKELSSRLLDIHDGRLRQMDEHGMEMMILSLNAPAVQAVADPVKAYELAVRANDFLAEQVAKRPDRFQAFAALPMQDPEKATQELERCMSVLGFRGALVNGFSQVGTPDNVAYYDAPQYAPFWAAAERLDAPFYLHPRNPIASWAQIYEGHPWLLGPTWAFAQETAVHALRLMASGLFDRHPGLKIILGHLGEGLPYNMWRVDHRNAWVKAPKGYPAKRKLCEYFQENFYLTTSGNFRTQTLIDAMLEVGSDRILFSTDWPFENIDHASNWFNDTSISEADRKKIGRTNAMSLFKLA
B15: 44 (protein, listed as Mycobacterium avium)
chain: MARIITVEEHFQHPEVSARVAELTGPAVEGLAEFGNAFSLDPDSTARLGGNRLAHMDQVGIDVQVVSHGNGSPGTLQHPEAVELCRRVNNDLAAQIAENPDRFRGFATLPLYDPAAAAEELRRCVGDLGFVGALIAGSYDGLFLDDERFDPILTAAEAVDFPIYVHPGLPEAPVSQRYYAGSWPASVHMMFSGPAFGWHAEAGIHIVRLILSGALDRHPTLKLLSGHWGELAAFYLERLDETLGLLPTGLERAPSDYYRQQVWITPSGMYNQNQLNFMTAELGAQRIIYSEDFPYVVRDNVSTFLEQAGLSEADTHAIAHTNAEALLRI
B16: 42 (protein)
chain: MAQGKIALEEHFAIPDTLQDSAGFVPGDYWKELSARLLDIHEQRLMQMDAYGIEKMILSLNAPAVQAIPDKAKALEISRRANDFLAEQCARNPDRFLGFAALPLQDPDAATAELQRCVKTLGFVGALVNGFSQEGDGVTPLYYDLPQYRGFWAEVEKLAVPFYLHPRNPLPQDSRIYAGHPWLMGPTWAFAQETAVHALRLVGSGLFDDHPALRIILGHMGEGLPYMMWRIDNRNAWVKVAPNYPAKRRIADYFNENFYITTSGNFRTQSLVDAMLEIGADRILFSTDWPFENIDHASDWFDTATISEADRLKIGRTNAATLFNLES
modifications: Agrobacterium radiobacter

The assay is described as follows: Saturation mutagenesis of SEQ ID NO:109: dicamba decarboxylation activity of point mutants (CO2 released), fold of backbone (Tables 7, 8, Megatable 1). Particulars: decarboxylation activity (CO2 released) of point mutant vs unmutated backbone protein; backbone SEQ ID NO: 109.
Regarding B1, the “Fold Activity” value came to 1.1 fold. B2: the “Fold Activity” value is reported as 1 fold. In the case of B3 it was 1.6 fold; in that of B4, 1.7 fold; in that of B5, 1.2 fold. B6: the “Fold Activity” value was determined as 1.4 fold. As for B7, the “Fold Activity” value was found to be 1.6 fold. With B8, the “Fold Activity” value is recorded as 1.6 fold.

On to B9, for which the “Fold Activity” value is given as 1.7 fold. For B10, the “Fold Activity” value was found to be 1.5 fold. On to B11, for which the “Fold Activity” value amounted to 2 fold. Regarding B12, the “Fold Activity” value is reported as 1.9 fold. For the molecule B13, the “Fold Activity” value came out at 1.7 fold. B14: the “Fold Activity” value turned out to be 1.8 fold. For B15, the “Fold Activity” value worked out at 0.7 fold. B16: the “Fold Activity” value amounted to 1.7 fold.
